Here are results for five molecules from patent US10809222B2, “Opioid detection based on high quality graphene transistor arrays and a synthetic mu receptor” (priority 2013, dated 2020).

One data set has as its target mu receptor protein (Homo sapiens, UniProt P35372). As to the kind of experiment: GFET sensor response (Dirac voltage shift) of mu receptor protein-functionalized graphene transistors. The settings on record: 10 micrograms/mL, negative control of specificity, 15-25 devices.
The test system of a further data set is mu-receptor protein. As to the kind of experiment: Raman spectroscopy optical readout of ligand binding on mu-receptor-protein-functionalized GFET. The arrangement: species or system human. The text has this:
Raman spectroscopy of the graphene layer in a functionalized GFET was used as an optical readout method to detect ligand binding. […]
A similar shift is seen in the 2D peak in FIG. 8c. No shifts were seen after exposure to pure buffer as a negative control, in FIGS. 8d and 8e.

A short description of data set [1]: Secondary structure content by circular dichroism. It counts as physicochemical. An excerpt: The CD spectra indicated predominantly helical structures with a helical secondary structure content of ˜48% (estimations based on the molar ellipticity over the range 205 to 260 nm). The comparison of the helical content with that of the native human MUR expressed in yeast system in the presence of high concentration of detergent (0.1% SDS) is presented in Table 1.

Data set [2] deals with human μ opioid receptor expressed in HEK293 cells. As to the kind of experiment: Competitive TR-FRET (HTRF) binding competition assay with native MUR and naltrexone-derived fluorescent antagonist. Particulars: methodology described for FIG. 16. An excerpt: FIG. 16. […] Data is used to calculate HTRF ratios, and represent the mean±standard error of mean of quadruplicates. ΔF is used for the comparison of different runs of the same assay which reflects the signal to background of the assay. ΔF=[(Ratiosample−Ratiobackgroud)/Ratiobackgroud](%).
A recently developed methodology which uses a fluorescently labeled ligand and the native MUR was used to investigate the ligand-binding capabilities of the water-soluble receptors.

The nature of data set [3]: Effects of denaturant (urea) and reducing agent (2-ME) by CD and intrinsic tryptophan fluorescence. The data set is classed as physicochemical. The settings on record: normalized to no denaturant. Here is the method:
CD and intrinsic tryptophan fluorescence were used to probe disulfide bond formation in the water-soluble variant. […] Even in 8 M urea, the protein retains some helical structure (Table 2). Upon addition of 2-ME, both the molar ellipticity and fluorescence further decreased, becoming more pronounced at the higher concentration of the reducing agent (200 mM). Thus the presence of an intramolecular disulfide bond is corroborated in the case of wsMUR-TM.

A short description of data set [4]: Thermostability by circular dichroism. Particulars: 5 mM sodium phosphate; for melting point (CD thermostability): 0.01% SDS, pH=7.0. Here is the method: The secondary structure of the water-soluble variant was determined through circular dichroism (CD). Circular dichroism (CD) spectra were recorded by using CD Spectrometer (Chirascan, AppliedPhotophysics Limited, Leatherhead, United Kingdom) with a scan speed of 1 nm/s and 1 mm path length. Corresponding blanks were used for calibration for each assay and subtracted from raw data. Two data sets were recorded and averaged to increase the signal-to-noise ratio. The CDNN CD spectra deconvolution software was utilized to determine the secondary structure content of the proteins. […] Absorbance was maintained lower than 1.0 to ensure sufficient light transmission. The temperature-dependence curve was plotted using GraphPad Prism® (version 5, GraphPad Software, Inc. La Jolla).

Setting [5] is: pH 7.0 + 0.1% SDS, expressed in yeast system.

Sequence of mu receptor protein (P35372 whole entry, looked up): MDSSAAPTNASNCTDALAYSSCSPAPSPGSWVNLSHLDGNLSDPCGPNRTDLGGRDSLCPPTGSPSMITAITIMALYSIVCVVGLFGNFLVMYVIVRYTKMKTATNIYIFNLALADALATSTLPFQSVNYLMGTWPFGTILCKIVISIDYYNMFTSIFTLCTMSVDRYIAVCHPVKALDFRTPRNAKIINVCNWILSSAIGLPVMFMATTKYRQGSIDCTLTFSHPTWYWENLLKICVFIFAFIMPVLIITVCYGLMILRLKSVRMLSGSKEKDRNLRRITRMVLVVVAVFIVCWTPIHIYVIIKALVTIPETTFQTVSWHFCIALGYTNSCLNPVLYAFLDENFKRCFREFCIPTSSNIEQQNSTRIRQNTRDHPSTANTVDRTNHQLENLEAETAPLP
Protocol for mu receptor protein: First, the graphene was functionalized through the use of a diazonium salt. The carboxylate group was then activated by EDC and stabilized with NHS. Mu receptor protein displaced the NHS to form an amide bond.
The graphene transistor was functionalized by incubation at 55° C. in a water solution of carboxylated diazonium salt (2.0 mg/mL in DI water). Carboxylic acid groups from the diazonium functionalization were activated and stabilized with 1-ethyl-3-[3-dimethylaminopropyl]carbodiimide hydrochloride/sulfo-Nhydroxysuccinimide (EDC/NHS) at an EDC concentration of 9 mg/15 mL MES buffer and NHS concentration of 20 mg/15 mL MES buffer. NHS molecules were displaced by Mu receptor proteins (3 micrograms/mL) in buffer (40 microM NaPi/260 microM NaCl/0.00004% SDS/10 microM 2-ME/pH 7.0), forming a covalent amide bond between the protein and the graphene. The devices were then electrically characterized and then their sensitivity to opioid exposure was measured.
The source-drain current value is at a minimum at the gate voltage value at which conductance is at a minimum. The increase in Dirac voltage was defined as the sensing response (change in signal, i.e. electronic characteristic) for this ligand. […] The inset is a magnified view of this shift in the Dirac voltage.
Each concentration was tested against 15-30 devices. […]

As for `CCOC(=O)c1ncn2c1CN(C)C(=O)c1cc(F)ccc1-2` [Flumazenil], on mu receptor protein, the “sensor response (Dirac voltage shift)” value is on record as −0.2±0.4 V.
Consider `O=C1CC[C@@]2(O)[C@H]3Cc4ccc(O)c5c4[C@@]2(CCN3CC2CC2)[C@H]1O5` [naltrexone], for which, in the data set on mu-receptor protein (10 ng/mL), the “Average 2D peak position after analyte” value was 2683.19 ± 0.20 and the “Average G peak position after analyte” value worked out at 1591.61 ± 0.13. In addition, in the data set with mu-receptor protein (10 micrograms/mL), the “Average 2D peak position after analyte” value is reported as 2685.83 ± 0.26 and the “Average G peak position after analyte” value came out at 1594.39 ± 0.15.
As for “Native MUR: native human μ receptor expressed in yeast system, in 0.1% SDS [reference compound]”, in data set [1] (setting [5]), the “Helix content (CD 205-260 nm)” value is 40.6%, the “Others content (CD 205-260 nm)” value came out at 40.5% and the “Turn content (CD 205-260 nm)” value is given as 18.9%.

B1: wsMUR-TM+7mut: second wsMUR recombinant protein (protein)
chain: SMITAIKILEEYKKVCEEGRKGNKLVMEVIVRYTKMKTATNIYIFNLAKADALAESTLPFQSVNKLMGTWPFGTILCKKVISIDYYNMFTSIFTLCTMSVDRYIAVCHPVKALDFRTPRNAKEHNEKNWKLSSEIGKPVEKRATTKYRQGSIDCTLTFSHPTWYWEDKLKDTVFKKAFEEPVKVIKECYGLMILRLKSVRMLSGSKEKDRNLRRITRMVLVVVEVFIKCWTEIHKYVKEGKL
With B1, the “binding activity / affinity with naltrexone” value in data set [2] is on record as “binding activity was also observed”.

B2: wsMUR-TM: transmembrane-only water-soluble human mu receptor variant (protein)
chain: SMITAIKIHEEYKKVCEEGKKGNKLVMEVIVRYTKMKTATNIYIFNLAKADALAESTLPFQSVNKLMGTWPFGTILCKKVISIDYYNMFTSIFTLCTMSVDRYIAVCHPVKALDFRTPRNAKEENEKNWKLSSEIGKPVEKKATTKYRQGSIDCTLTFSHPTWYWEDKLKDEVFKKAFEEPVKKIKECYGLMILRLKSVRMLSGSKEKDRNLRRITRMVLVVVEVFIKCWTEIHKYVKEGKLVTIPETTFQTVSWHECIAKGYKNSCENPKLYEELDENFKRCFREFC
Consider B2, for which, in data set [3] (Urea (8M) 2-ME (25 mM)), the “Fluorescence Peak Intensity (%; 300-350 nm)” value turned out to be 23.9% and the “Molar Ellipticity (%; 222 nm)” value came to 25.1%. Further, in data set [3] (Urea (8M) 2-ME (200 mM)), the “Fluorescence Peak Intensity (%; 300-350 nm)” value came to 4.5% and the “Molar Ellipticity (%; 222 nm)” value amounted to 0.0%. Moreover, in data set [3] (Urea (8M)), the “Fluorescence Peak Intensity (%; 300-350 nm)” value worked out at 28.4% and the “Molar Ellipticity (%; 222 nm)” value was 40.0%. In addition, the “temperature at which ellipticity (222 nm) starts to be lost significantly” value in data set [4] (pH=7.0, 10 to 90° C.) is about 62 °C. The “melting point (CD thermostability)” value in data set [4] (absence of cholesterol) is 82.9 °C. Further, the “melting point (CD thermostability)” value in data set [4] (presence of cholesterol) came out at 89.3 °C. In addition, in data set [1] (pH 7.0 in NaHPO4), the “Helix content (CD 205-260 nm)” value was 48.0%, the “Others content (CD 205-260 nm)” value amounted to 37.4% and the “Turn content (CD 205-260 nm)” value was found to be 14.6%.
